This is an account of results in patent US20060178504A1.

This assay addresses binding sites on guinea-pig eosinophils (guinea-pig). In words: radioligand binding, 0.1 nM 125I-RANTES on 4x10^5 guinea-pig eosinophils, no competitor.

Regarding “recombinant human RANTES (from UniProt P13501 24-91) (ligand)”, the BO is 14.4%.
